Data published in patent US20080113421A1, “Stabilizing proteins against denaturation and inactivation by charged detergents using chemical modifications, including modifications that increase net charge” (President and Fellows of Harvard College, priority 2006, published 2008).

Key:
Assay type in all cases: physicochemical
[1] = Refolding after 1 week incubation at intermediate SDS concentrations (aggregation test); conditions: denatured in 10 mM SDS, incubated 1 week at intermediate SDS, diluted into 0.1 mM SDS
Procedure: Aggregation was tested by renaturing the proteins from a denatured state at 10 mM SDS to 0.1 mM SDS, but through an incubation step at intermediate concentrations of SDS, instead of renaturing by rapid dilution from 10 mM SDS to 0.1 mM SDS directly (i.e., 10 mM SDS→2.5 mM SDS→0.1 mM SDS instead of 10 mM SDS→0.1 mM SDS). For incubation, concentrations of SDS were chosen in which aggregation was believed to occur on a similar or shorter time scale as refolding. The protein-SDS complex was diluted from 10 mM SDS to 2.5-0.7 mM SDS, the proteins were incubated for 1 week at those concentrations, and the samples further diluted to 0.1 mM SDS to initiate fast refolding.
The fluorescence signal from DNSA was normalized to that of refolded protein by rapid dilution from 10 to 0.1 mM SDS.

[2] = Dynamic light scattering, hydrodynamic radius
Procedure: Dynamic light scattering (DLS) measurements were performed on a DynaPro light scattering device (Wyatt Technology Corp.), at protein concentrations of […].
Dynamic light scattering was also used to measure the sizes of the folded and unfolded protein and of the presumably aggregated sample. The hydrodynamic radius of the native BCA (2.7±0.7 nm), and of BCA, refolded in 0.1 mM SDS (2.6±0.6 nm), were measured. BCA was denatured in 10 mM SDS, and diluted to 1.8 mM SDS, a concentration at which no refoldings were observed immediately before the measurement. […] The small increase in the hydrodynamic radius of the incubated sample is indicative of the formation of low-order aggregates (e.g., dimers or trimers), but the resolution of DLS measurements was not sufficient to observe each species individually.

[3] = Refolding of SDS-denatured protein by dilution or removal of SDS, monitored by DNSA fluorescence
Procedure: Monitoring refolding of BCA and BCA-Ac18 was performed as follows. The proteins (10 micomolar) were denatured in 10 mM SDS for 24 h. […] Refolding was initiated by dilution of an aliquot of the denatured sample to a final concentration of protein of 200 nM, with varying concentrations of SDS in the buffer. Immediately prior to the measurement, an aliquot of renaturing protein was mixed with an equal aliquot of DNSA. The rate constants for renaturation were determined by fitting the data to FU=FUmax(1-e^−kt)+FUmin. The refolding experiments at 37° C. were performed similarly.
The kinetics of refolding were determined as follows. The rates of refolding of BCA and BCA-Ac18 from the fully denatured states (in 10 mM SDS) were measured by dilution of the solutions into buffers containing concentrations of SDS from 0.1 to 2 mM, using the fluorescence of DNSA as a marker for the appearance of the folded state. […] As in denaturation studies, an aliquot of solution of the protein and SDS was mixed with an equal aliquot of solution of DNSA with the same amount of SDS immediately prior to the measurement to eliminate the possibility of DNSA influencing refolding kinetics. The buffer also contained 100 micromolar ZnSO4 to ensure that the folded protein could incorporate a Zn(II) cofactor.
The raw data emphasize the decrease in the yield of folded protein with increasing concentration of SDS. […] The half-lives (t1/2) for renaturation were determined, where possible, by fitting the data to FU=FUmax(1-exp(−t/t1/2))+FUmin; the fits are shown (solid lines). The tables provide data for refolding in 0.1 and 0.4 mM SDS as well as for concentrations on the graphs for comparison. […] The error bars represent the difference between the average and the largest and smallest values measured from at least three replicate measurements.

[4] = Net charge of protein (capillary electrophoresis, charge ladder)
Procedure: BCA-Ac18 was synthesized by reacting the lysine residues of BCA with acetic anhydride in 100 mM HEPES buffer, pH 8.2. The N-terminus of BCA was acetylated posttranslationally. The final product contained ˜90% of BCA-Ac18 and 10% of BCA-Ac17, as determined by peak areas in an electropherogram from separation by capillary electrophoresis. The net charge of BCA in Tris-Gly buffer was about −3, and the net charge of BCA-Ac18 was about −19. It is believed that the difference in charge between BCA and BCA-Ac18 was less than 18 full units of charge due to charge regulation-adjustment of protonation states of other ionizable groups on the protein to counteract the increasing electrostatic potential on its surface.
For any charge ladder of BCA, as the number of modifications (n) increases, the total charge on the protein becomes more negative, and the surface of the protein becomes more hydrophobic due to conversion of NH3^+ groups to NHCOR groups. Native BCA has a charge of ˜−2.9 at pH 8. The charge on the early rungs of the ladder increased linearly with the number of acylations; each rung adds an additional charge of ˜−0.9. Therefore, for example, BCA-Ac8 has a charge of ˜−10. The later rungs of the ladder may differ by <0.9 units of charge. Using the Linderstrom-Lang model of cooperativity in proton binding, the charge on BCA-Ac18 was calculated to be −19. The mobility of a given rung of BCA-Acn may have nearly the same mobility as the corresponding rung of BCA-Hexn. Thus, the charges of the BCA-Hexn may be indistinguishable from those of BCA-Acn for a given rung number. (Small deviations in mobility between later rungs of the two ladders may be due either to a change in charge or a change in drag between the two ladders. It can be assumed that any differences in the mobilities are due to additional drag from the hexanoyl groups relative to the acetyl groups.

bovine carbonic anhydrase II [BCA]
t1/2 for refolding [1]: 10.8 ± 0.6 min | hydrodynamic radius ([2]; denatured in 10 mM SDS, diluted to 1.8 mM SDS immediately before measurement): 2.9±0.6 nm | hydrodynamic radius ([2]; denatured, incubated in 1.8 mM SDS for one week): 3.6±0.9 nm | hydrodynamic radius ([2]; native protein): 2.7±0.7 nm | hydrodynamic radius ([2]; refolded in 0.1 mM SDS): 2.6±0.6 nm | concentration of SDS at which no refolded protein was observed ([3]; dilution from 10 mM SDS): ≥ 800 µM | range of SDS concentrations in which protein neither refolds nor unfolds at an observable rate (window) ([3]; time scales of a month): 0.8 to 2 mM | refolding rate (given as time) after denaturation with SDS ([3]; upon complete removal of the SDS): 11 ± 1 min | net charge ([4]; Tris-Gly buffer): about −3 | charge ([4]; pH 8): ~−2.9
